Assays:
Assay in all cases: purified protein
[1] = tested on: CC(=O)Oc1ccc([N+](=O)[O-])cc1; conditions: pH 8.0; 25.0 °C
[2] = tested on: CCCC(=O)Oc1ccc([N+](=O)[O-])cc1; conditions: pH 8.0; 25.0 °C
CC(=O)Oc1ccccc1 = conditions: pH 8.0; 25.0 °C
O=C1CCc2ccccc2O1 = conditions: pH 7.4; 25.0 °C

reTAPON1-LIKE (Trichoderma atroviride)
Km [1]: 1120 ± 140 µM
Km [2]: 1580 ± 120 µM
Km (CC(=O)Oc1ccccc1): 890 ± 60 µM
Km (O=C1CCc2ccccc2O1): 730 ± 10 µM

From article doi:10.1101/416081v1
